{"source": "patent EP4772534A1", "about": "(Astellas Pharma, Inc., dated 2026)", "binders": {"B1": {"name": "LYS_E294Del_h1x (antibody, human IgG1, kappa)", "heavy": "QVQLVQSGAEVKKPGASVKVSCKASGYAFSSSWVNWVRQAPGQGLEWMGRIYPGDGDTDYNGKFKGRVTLTADKSTSTAYMELSSLRSEDTAVYYCARRRGYEAVFDYWGQGTLVTVSSASTKGPSVFPLAPSSKSTSGGTAALGCLVKDYFPEPVTVSWNSGALTSGVHTFPAVLQSSGLYSLSSVVTVPSSSLGTQTYICNVNHKPSNTKVDKKVEPKSCDKTHTCPPCPAPELLGGPSVFLFPPKPKDTLMISRTPEVTCVVVDVSHEDPEVKFNWYVDGVEVHNAKTKPREQYNSTYRVVSVLTVLHQDWLNGKEYKCKVSNKALPAPIEKTISKAKGQPREPQVYTLPPSRDELTKNQVSLTCLVKGFYPSDIAVEWESNGQPENNYKTTPPVLDSDGSFFLYSKLTVDKSRWQQGNVFSCSVMHEALHNHYTQKSLSLSPGK", "light": "DIQLTQSPSSLSASVGDRVTITCRASESVDNYDISFLNWFQQKPGKAPKLLIYAASNQGSGVPSRFSGSGSGTDFTLTISSLQPEDFATYYCQQSKEVPYTFGGGTKVEIKRTVAAPSVFIFPPSDEQLKSGTASVVCLLNNFYPREAKVQWKVDNALQSGNSQESVTEQDSKDSTYSLSSTLTLSKADYEKHKVYACEVTHQGLSSPVTKSFNRGEC", "notes": "Expressed in ExpiCHO-S cells without ST6GAL1 co-expression; also called anti-lysozyme antibody having the E294Del amino acid mutation in the human Igγ1 constant region"}, "B2": {"name": "LYS_1c3-m1_h10 (antibody, human IgG1, kappa)", "heavy": "not shown", "light": "DIQLTQSPSSLSASVGDRVTITCRASESVDNYDISFLNWFQQKPGKAPKLLIYAASNQGSGVPSRFSGSGSGTDFTLTISSLQPEDFATYYCQQSKEVPYTFGGGTKVEIKRTVAAPSVFIFPPSDEQLKSGTASVVCLLNNFYPREAKVQWKVDNALQSGNSQESVTEQDSKDSTYSLSSTLTLSKADYEKHKVYACEVTHQGLSSPVTKSFNRGEC", "notes": "human Igγ1 constant region, unmodified Fc; Expressed in ExpiCHO-S cells without ST6GAL1 co-expression; also called anti-lysozyme antibody having the human Igγ1 constant region (Fc non-variant)"}, "B3": {"name": "LYS_E294Del_LALA_h1x (antibody, human IgG1, kappa, L234A L235A)", "heavy": "QVQLVQSGAEVKKPGASVKVSCKASGYAFSSSWVNWVRQAPGQGLEWMGRIYPGDGDTDYNGKFKGRVTLTADKSTSTAYMELSSLRSEDTAVYYCARRRGYEAVFDYWGQGTLVTVSSASTKGPSVFPLAPSSKSTSGGTAALGCLVKDYFPEPVTVSWNSGALTSGVHTFPAVLQSSGLYSLSSVVTVPSSSLGTQTYICNVNHKPSNTKVDKKVEPKSCDKTHTCPPCPAPEAAGGPSVFLFPPKPKDTLMISRTPEVTCVVVDVSHEDPEVKFNWYVDGVEVHNAKTKPREQYNSTYRVVSVLTVLHQDWLNGKEYKCKVSNKALPAPIEKTISKAKGQPREPQVYTLPPSRDELTKNQVSLTCLVKGFYPSDIAVEWESNGQPENNYKTTPPVLDSDGSFFLYSKLTVDKSRWQQGNVFSCSVMHEALHNHYTQKSLSLSPGK", "light": "DIQLTQSPSSLSASVGDRVTITCRASESVDNYDISFLNWFQQKPGKAPKLLIYAASNQGSGVPSRFSGSGSGTDFTLTISSLQPEDFATYYCQQSKEVPYTFGGGTKVEIKRTVAAPSVFIFPPSDEQLKSGTASVVCLLNNFYPREAKVQWKVDNALQSGNSQESVTEQDSKDSTYSLSSTLTLSKADYEKHKVYACEVTHQGLSSPVTKSFNRGEC", "notes": "Expressed in ExpiCHO-S cells without ST6GAL1 co-expression; also called anti-lysozyme antibody having the L234A/L235A/E294Del amino acid mutations in the human Igγ1 constant region"}}, "data": [{"target": "T1, human FcγRI (human, UniProt P12314 16-288, limits assumed)", "T1 construct": "Construct used in the Biacore assay (source, tag, limits) is not described; also called human FcyRI", "T1 sequence (P12314 16-288 limits assumed)": "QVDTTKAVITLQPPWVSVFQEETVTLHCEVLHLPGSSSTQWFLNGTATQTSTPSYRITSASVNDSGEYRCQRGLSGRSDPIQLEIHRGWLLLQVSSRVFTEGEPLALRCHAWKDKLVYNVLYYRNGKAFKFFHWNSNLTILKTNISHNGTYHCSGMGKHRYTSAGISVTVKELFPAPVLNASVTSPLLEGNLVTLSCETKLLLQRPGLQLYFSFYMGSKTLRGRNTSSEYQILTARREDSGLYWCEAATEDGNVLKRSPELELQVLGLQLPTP", "assay": "Biacore T200 (SPR)", "values": [{"binder": "B1", "binding result": "binds"}, {"binder": "B2", "binding result": "binds"}, {"binder": "B3", "binding result": "no binding"}]}]}
